In article PMC11106242, “Homozygous EPRS1 missense variant causing hypomyelinating leukodystrophy-15 alters variant-distal mRNA m^6A site accessibility” (Nature Communications, 2024):

B1: Wild-type ProRS fragment of human EPRS1 (aa 930-1512) (domain or fragment, UniProt P07814 930-1512, looked up)
chain: IAVQELLQLKAQYKSLIGVEYKPVSATGAEDKDKKKKEKENKSEKQNKPQKQNDGQRKDPSKNQGGGLSSSGAGEGQGPKKQTRLGLEAKKEENLADWYSQVITKSEMIEYHDISGCYILRPWAYAIWEAIKDFFDAEIKKLGVENCYFPMFVSQSALEKEKTHVADFAPEVAWVTRSGKTELAEPIAIRPTSETVMYPAYAKWVQSHRDLPIKLNQWCNVVRWEFKHPQPFLRTREFLWQEGHSAFATMEEAAEEVLQILDLYAQVYEELLAIPVVKGRKTEKEKFAGGDYTTTIEAFISASGRAIQGGTSHHLGQNFSKMFEIVFEDPKIPGEKQFAYQNSWGLTTRTIGVMTMVHGDNMGLVLPPRVACVQVVIIPCGITNALSEEDKEALIAKCNDYRRRLLSVNIRVRADLRDNYSPGWKFNHWELKGVPIRLEVGPRDMKSCQFVAVRRDTGEKLTVAENEAETKLQAILEDIQVTLFTRASEDLKTHMVVANTMEDFQKILDSGKIVQIPFCGEIDCEDWIKKTTARDQDLEPGAPSMGAKSLCIPFKPLCELQPGAKCVCGKNPAKYYTLFGRSY
notes: ProRS fragment of human EPRS1 (glutamyl-prolyl-tRNA synthetase), aa 930-1512, subcloned in pTRC-HisB; also called recombinant WT ProRS; ProRS domain; source: E. coli BL21 Codon-plus (DE3)RIPL, purified (HisTrap HP column)
B2: P1482T mutant ProRS fragment of human EPRS1 (aa 930-1512) (domain or fragment, UniProt P07814 930-1512, looked up)
chain: IAVQELLQLKAQYKSLIGVEYKPVSATGAEDKDKKKKEKENKSEKQNKPQKQNDGQRKDPSKNQGGGLSSSGAGEGQGPKKQTRLGLEAKKEENLADWYSQVITKSEMIEYHDISGCYILRPWAYAIWEAIKDFFDAEIKKLGVENCYFPMFVSQSALEKEKTHVADFAPEVAWVTRSGKTELAEPIAIRPTSETVMYPAYAKWVQSHRDLPIKLNQWCNVVRWEFKHPQPFLRTREFLWQEGHSAFATMEEAAEEVLQILDLYAQVYEELLAIPVVKGRKTEKEKFAGGDYTTTIEAFISASGRAIQGGTSHHLGQNFSKMFEIVFEDPKIPGEKQFAYQNSWGLTTRTIGVMTMVHGDNMGLVLPPRVACVQVVIIPCGITNALSEEDKEALIAKCNDYRRRLLSVNIRVRADLRDNYSPGWKFNHWELKGVPIRLEVGPRDMKSCQFVAVRRDTGEKLTVAENEAETKLQAILEDIQVTLFTRASEDLKTHMVVANTMEDFQKILDSGKIVQIPFCGEIDCEDWIKKTTARDQDLEPGAPSMGAKSLCITFKPLCELQPGAKCVCGKNPAKYYTLFGRSY
notes: The substitution is a natural patient variant; also called Pro1482Thr ProRS; P1482T ProRS; source: E. coli BL21 Codon-plus (DE3)RIPL, purified (HisTrap HP column)

Biological target: the molecule itself
Assay: SEC; Superdex 200 size-exclusion column pre-calibrated with Bio-Rad gel-filtration standards, in purification buffer (50 mM Tris-HCl pH 8.0, 100 mM NaCl, 10% glycerol); monomer to dimer

Protein	stoichiometry N
B1	2
B2	2
